According to article PMC2879511 (Nucleic Acids Research, 2010):

T1: Med4 (recombinant) (S. cerevisiae, UniProt Q12343 1-284)
T1 sequence: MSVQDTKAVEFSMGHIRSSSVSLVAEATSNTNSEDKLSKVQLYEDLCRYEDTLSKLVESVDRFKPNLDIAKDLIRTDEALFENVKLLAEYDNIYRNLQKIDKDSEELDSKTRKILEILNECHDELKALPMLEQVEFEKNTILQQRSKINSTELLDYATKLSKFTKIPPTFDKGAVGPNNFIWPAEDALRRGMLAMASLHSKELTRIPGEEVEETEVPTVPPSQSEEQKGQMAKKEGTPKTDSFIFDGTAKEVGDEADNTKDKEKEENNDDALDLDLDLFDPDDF

B1: Med9 (recombinant) (natural protein)
chain: MNLQNNVLNQIHQILLPTNPTLDKPNAEATKEEFSSAENRDEKDYLTNQQPKNLSTPSTSSNGEFIPHIFYSLHQIRKDPNNLSNQLETLTGSIRHRLKLCKSLISENEDTKDLLSKSPSEWQDIIHQREQELQIKRDVLDDLYRKLQR
B2: 6-subunit middle module complex Med4/7/9/10/21/31 (complex)
chain 1: T1 sequence
chain 2: MSNDPGNEVSSLYPPPPPYVKFFTQSNLEKLPKYKEKKAASAKQTAPNNSNGGSEEEITCALDYLIPPPMPKNQQYRAFGSIWQVKDQLPDLESMGLTQLYKKSTENESTNYQYKIQELRKLLKSLLLNYLELIGVLSINPDMYERKVENIRTILVNIHHLLNEYRPHQSRESLIMLLEEQLEYKRGEIREIEQVCKQVHDKLTSIQDTLRTGSQSPPSSSQ
chain 3: B1 chain
chain 4: MNGNSTNNEQLQQELATTQDQVASIIESFVELGVSIYDFPGTPEATKGMITNLQRNVDRLYKLNVRSNDPQSSLSKVDIPLEVVQYIEDGRNPDIYTREFVEAIRRSNQYQRGKMHGLKQLRDSLADKIVDEFPELKEPVEDIIKRTSPIDNVSNTH
chain 5: MTDRLTQLQICLDQMTEQFCATLNYIDKNHGFERLTVNEPQMSDKHATVVPPEEFSNTIDELSTDIILKTRQINKLIDSLPGVDVSAEEQLRKIDMLQKKLVEVEDEKIEAIKKKEKLLRHVDSLIEDFVDGIANSKKST
chain 6: […]
B3: Med4/9 heterodimer (complex)
chain 1: T1 sequence
chain 2: B1 chain
B4: StrepII-tagged Med1 (natural protein)
chain: MVEGDSYVETLDSMIELFKDYKPGSITLENITRLCQTLGLESFTEELSNELSRLSTASKIIVIDVDYNKKQDRIQDVKLVLASNFDNFDYFNQRDGEHEKSNILLNSLTKYPDLKAFHNNLKFLYLLDAYSHIESDSTSHNNGSSDKSLDSSNASFNNQGKLDLFKYFTELSHYIRQCFQDNCCDFKVRTNLNDKFGIYILTQGINGKEVPLAKIYLEENKSDSQYRFYEYIYSQETKSWINESAENFSNGISLVMEIVANAKESNYTDLIWFPEDFISPELIIDKVTCSSNSSSSPPIIDLFSNNNYNSRIQLMNDFTTKLINIKKFDISNDNLDLISEILKWVQWSRIVLQNVFKLVSTPSSNSNSSELEPDYQAPFSTSTKDKNSSTSNTEPIPRSNRHGSVVEASRRRRSSTNKSKRPSITEAMMLKEEGLQQFNLHEILSEPAIEEENGDSIKEHSTTMDGANDLGFTASVSNQENAGTDIVMEDHGVLQGTSQNYGTATADDADIEMKDVSSKPSKPESSVLQLIVSEDHIILDTISECNLYDDVKCWSKFIEKFQDIVS
B5: 4-subunit middle module complex Med7/10/21/31-His6 (complex)
chain 1: B2 chain 2
chain 2: B2 chain 4
chain 3: B2 chain 5
chain 4: […]
B6: Med7 (recombinant) (natural protein)
chain: B2 chain 2
B7: Med10 (recombinant) (natural protein)
chain: B2 chain 4
B8: Med21 (recombinant) (natural protein)
chain: B2 chain 5

Experiments:
[1] = target: T1, Med4 (recombinant); assay: copurification after coexpression
[2] = target: the molecule itself; assay: native MS
[3] = target: B5; assay: native MS
[4] = target: 6-subunit complex Med4/7/9/10/21/31 of the coexpressed 7-subunit middle module (S. cerevisiae, UniProt Q12343;Q08278;P33308;Q06213;P47822;P38633); assay: native MS
[5] = target: T1, Med4 (recombinant); assay: native MS
[6] = target: B6; assay: native MS

Binder: B1
- binding result [1]: binds

Binder: B2
- stoichiometry N [2]: 2

Binder: B3
- stoichiometry N [3]: 1

Binder: B4
- stoichiometry N [4]: 1

Binder: B5
- stoichiometry N [2]: 2

Binder: B6
- binding result [5]: binds

Binder: B7
- binding result [6]: binds

Binder: B8
- binding result [6]: binds
